Results from paper PMC3099347 (Journal of molecular biology, 2011).

B1: Methanococcus jannaschii FKBP26 fragment 231-ΔIF (1-231Δ83-G-A-G-134) (domain or fragment)
chain: MVEKGKMVKISYDGYVDGKLFDTTNEELAKKEGIYNPAMIYGPVAIFAGEGQVLPGLDEAILEMDVGEEREVVLPPEKAFGKRGAGLAGKEVKYRIKIEEVVDDKKNIVKEIVKMYVPRLSDVKVTIRNGTVKIELPEFAPFIPNIQTAKMAIANEILKRLEDAEKVSFVETFERKKETKEENK
B2: Methanococcus jannaschii FKBP26, construct 231 (full-length, residues 1-231) (natural protein, UniProt Q58235 1-231, looked up)
chain: MVEKGKMVKISYDGYVDGKLFDTTNEELAKKEGIYNPAMIYGPVAIFAGEGQVLPGLDEAILEMDVGEEREVVLPPEKAFGKRDPSKIKLIPLSEFTKRGIKPIKGLTITIDGIPGKIVSINSGRVLVDFNHELAGKEVKYRIKIEEVVDDKKNIVKEIVKMYVPRLSDVKVTIRNGTVKIELPEFAPFIPNIQTAKMAIANEILKRLEDAEKVSFVETFERKKETKEENK

Target: the molecule itself
Assay: SEC

Row | Protein | stoichiometry N
1 | B1 | 2
2 | B2 | 2
